Experiment [1] deals with Mouse Ang-2FD-hFc (mouse (Mus musculus)). Kind of experiment: ELISA; 16.67 nM antibody premixed with Ang-2FD-hFc, binding to coated hTie-2-mFc.
Experiment [2] addresses Monkey Ang-2FD-hFc (monkey (Macca fascicularis)). The experiment is described as above.
The target in experiment [3] is Human Ang-2FD-hFc (human). Described as above.
Experiment [4] concerns the target Dimeric Mouse Ang-2FD conjugated to human IgG1 (mouse (Mus musculus)). Nature of the experiment: SPR, human IgG1 antibody captured.
Experiment [5] concerns the target Dimeric Monkey Ang-2FD conjugated to human IgG1 (monkey (Macca fascicularis)). Nature of the experiment: SPR, human IgG1 antibody captured.
The target of experiment [6] is Dimeric Human Ang-2FD conjugated to human IgG1 (human). Nature of the experiment: SPR, human IgG1 antibody captured.
Experiment [7] addresses Dimeric Mouse Ang-2FD conjugated to human IgG1 (mouse (Mus musculus)). Nature of the experiment: ELISA, 16.67 nM antibody, Ang-2FD-hFc binding to coated hTie-2-mFc.
In experiment [8] the target is Dimeric Monkey Ang-2FD conjugated to human IgG1 (monkey (Macca fascicularis)). The experiment is described as above.
The target in experiment [9] is Dimeric Human Ang-2FD conjugated to human IgG1 (human). Described as above.
The target of experiment [10] is Dimeric Mouse Ang-2FD conjugated to human IgG1 (mouse (Mus musculus)). Kind of experiment: SPR, antibody captured, room temperature.
The target in experiment [11] is Dimeric Monkey Ang-2FD conjugated to human IgG1 (monkey (Macca fascicularis)). Kind of experiment: SPR, antibody captured, room temperature.
Experiment [12] deals with Dimeric Human Ang-2FD conjugated to human IgG1 (human). Nature of the experiment: SPR, antibody captured, room temperature.

Where a chain is given by its changes, count along the chain named.

Sequence of Dimeric Mouse Ang-2FD conjugated to human IgG1 (mouse (Mus musculus)) (chain, as listed by the source limits assumed): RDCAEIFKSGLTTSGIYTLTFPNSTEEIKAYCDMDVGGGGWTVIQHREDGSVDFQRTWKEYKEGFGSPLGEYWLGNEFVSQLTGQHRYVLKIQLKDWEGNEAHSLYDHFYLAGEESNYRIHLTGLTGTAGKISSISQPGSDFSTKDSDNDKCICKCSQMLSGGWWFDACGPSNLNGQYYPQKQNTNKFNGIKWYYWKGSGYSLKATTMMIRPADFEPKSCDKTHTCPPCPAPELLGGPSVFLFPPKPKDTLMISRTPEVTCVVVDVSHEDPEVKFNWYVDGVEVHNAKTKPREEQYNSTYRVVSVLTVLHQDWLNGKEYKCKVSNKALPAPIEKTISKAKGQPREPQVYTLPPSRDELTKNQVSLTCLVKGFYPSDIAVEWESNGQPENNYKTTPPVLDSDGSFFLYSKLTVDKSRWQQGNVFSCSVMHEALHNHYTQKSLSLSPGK
Sequence of Dimeric Human Ang-2FD conjugated to human IgG1 (human) (chain, as listed by the source limits assumed): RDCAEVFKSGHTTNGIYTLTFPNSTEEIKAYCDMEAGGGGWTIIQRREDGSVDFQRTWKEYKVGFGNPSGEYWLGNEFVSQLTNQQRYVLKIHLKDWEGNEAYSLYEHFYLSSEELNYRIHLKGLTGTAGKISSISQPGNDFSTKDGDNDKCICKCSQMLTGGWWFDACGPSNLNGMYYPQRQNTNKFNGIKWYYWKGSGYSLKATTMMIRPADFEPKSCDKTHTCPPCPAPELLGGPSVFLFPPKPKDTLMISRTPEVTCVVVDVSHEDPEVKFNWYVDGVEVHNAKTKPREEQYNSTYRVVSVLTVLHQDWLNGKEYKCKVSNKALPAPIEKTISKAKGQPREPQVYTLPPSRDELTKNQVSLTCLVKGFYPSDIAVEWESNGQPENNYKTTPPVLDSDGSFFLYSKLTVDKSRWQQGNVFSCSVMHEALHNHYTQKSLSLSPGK
Sequence of Dimeric Monkey Ang-2FD conjugated to human IgG1 (monkey (Macca fascicularis)) (chain, as listed by the source limits assumed): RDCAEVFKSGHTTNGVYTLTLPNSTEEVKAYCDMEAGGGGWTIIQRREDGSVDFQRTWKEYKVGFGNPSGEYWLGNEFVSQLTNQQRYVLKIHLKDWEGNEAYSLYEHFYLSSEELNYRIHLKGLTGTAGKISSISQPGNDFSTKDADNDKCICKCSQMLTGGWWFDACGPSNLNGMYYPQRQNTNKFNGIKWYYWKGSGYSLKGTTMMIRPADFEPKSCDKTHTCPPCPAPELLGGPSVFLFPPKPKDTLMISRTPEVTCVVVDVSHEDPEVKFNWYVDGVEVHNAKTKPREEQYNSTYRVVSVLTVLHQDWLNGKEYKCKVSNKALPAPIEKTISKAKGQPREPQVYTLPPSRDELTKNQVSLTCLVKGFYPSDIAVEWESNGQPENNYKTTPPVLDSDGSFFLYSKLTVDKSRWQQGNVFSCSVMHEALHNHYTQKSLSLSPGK

In the case of Control I (Ab) (antibody), the Percent Blocking of Ang-2FD Binding to Tie-2 in experiment [1] was 82.2%; in [2], 98.5%; in experiment [3], 97.3%.

B1: H1H724N (antibody, V domains shown)
VH: QVQLVESGGGVVQPGRSLRLSCAASGFTLSNYGMHWVRQAPGKGLEWVAVIWHDGSNTYYADSVKGRFTISRDNSKNTLYLQMNSLRAEDTAVYYCTREGLDFWSGYYPNWFDPWGQGTLVTVSS
VL: DIQMTQSPSSLSASVGDRVTITCRASQGIRNDLGWYQQKPGKAPKRLIYAASNLQGGVPSRFSGSGSGTEFTLTISSLQPEDFAAYYCLQHNIYPLTFGGGTKVEIK
For the molecule B1, the Percent Blocking of Ang-2FD Binding to Tie-2 in experiment [1] was 97.1%; in experiment [2], 96.6%; in experiment [3], 96.6%. Also, the Kd came to 0.185 nM in experiment [4], 0.239 nM in [5] and 0.115 nM in experiment [6]. For the same molecule, the T1/2 came to 84 min in experiment [4], 173 min in experiment [5] and 107 min in experiment [6].

B2: H2M743N (antibody, V domains shown)
VH: EVQLLESGGGLVQPGGSLRLSCAASGFTFRKYAMSWVRQAPGKGLEWVSVISVSGGNTYYADSVKGRFTISRDNSKNTLYLQLNSLRAEDTAVYYCAKDLTDIVLMVYVDYWGQGTLVTVSS
VL: DIQMTQSPSSVSASVGDRVTITCRASQDIDRWLAWYQQKPGKAPKLLIYAASSLQSGVPSRFSGSGSGTDFTLTISTLQPEDFATYYCQQANSLPFTFGGGTKVEIK
With B2, the Percent Blocking of Ang-2FD Binding to Tie-2 was 98.4% in experiment [7], 95.1% in experiment [8] and 99.6% in experiment [9]. Moreover, the Kd in experiment [10] amounted to 0.882 nM; in experiment [11] it was 0.234 nM; in experiment [12], 0.154 nM. The T1/2 in experiment [10] is 195 min; in [11] it was 169 min; in experiment [12], 167 min.

B3: H1H693P (antibody, human IgG1, V domains shown)
VH: EVQLVESGGGLVQPGESLRLSCAASGFTFSSYAMSWVRQGPGKGLEWVSSISGSGGTTYYADSVEGRFTISRDNSKNTLYLHMNSLRAEDTAVYYCAKDFLDYSTYLAFDLWGQGTMVTVSS
VL: B2 VL with D28G, D30S, R31S, T77S, L94F, F96R, G100Q
With B3, the Percent Blocking of Ang-2FD Binding to Tie-2 is 63.6% in experiment [1] and 73.9% in [3]. For the same molecule, the Kd in experiment [4] came out at 0.446 nM; in experiment [5], 1.17 nM; in [6], 0.5 nM. Besides, the results for the T1/2 in [4], in experiment [5] and in experiment [6] were 63.7 min, 17.6 min and 37.1 min, respectively.
